From patent US12037395 (IMMVIRA, dated 2024)

What was measured:
[1] = molecular target: human PD-1 on PD-1 Effector Cell Line (Genscript, GS-J2/PD-1) (human, UniProt Q15116 25-288); experiment: cell-based or functional assay
[2] = molecular target: T1, recombinant human PD-1-his (Sino biological, #10377-H08H) (human, UniProt Q15116 25-167); experiment: SPR (Biacore T200), antibody captured, antigen flowed
T1 construct: Bought protein; also called Human PD-1-his protein; not shown: his tag
Excerpt: (§1) Briefly, goat […] (GE healthcare, Cat #BR100839, Human Antibody Capture Kit) was covalently linked to a CM5 chip (carboxy methyl dextran coated chip) via primary amines, using a standard amine coupling kit (GE healthcare, Pittsburgh, PA, USA) provided by Biacore. Unreacted moieties on the biosensor surface were blocked with ethanolamine. […] Then, recombinant human PD-1-his (Sino biological, #10377-H08H) or cynomolgus monkey PD-1-his protein (Acro biosystems, #PD-1-C5223) in HBS EP buffer (provided by Biacore) was flowed onto the chip at a flow rate of 30 μL/min. The antigen-antibody association kinetics was followed for 2 minutes and the dissociation kinetics was followed for 10 minutes. The association and dissociation curves were fit to a 1:1 *Langmuir* binding model using BIA evaluation software.

[3] = molecular target: T2, cynomolgus monkey PD-1-his protein (Acro biosystems, #PD-1-C5223) (cynomolgus monkey, UniProt B0LAJ3 25-170); experiment: as above
T2 construct: Bought protein; also called Cynomolgus PD-1; Cynomolgus PD1
Excerpt: as §1

[4] = molecular target: T3, biotin-labeled human PD-1 Fc protein (human, biotin-labeled (sites not given)); experiment: competition ELISA: blocks biotin PD-1-Fc binding to coated PD-L1-Fc
T3 construct: also called PD-1-Fc-biotin
Protocol: The next day, plates were washed with wash buffer (PBS+0.05% Tween-20, PBST), and blocked with 5% non-fatty milk in PBST for 2 hours at 37° C. Plates were then washed again using wash buffer.
After incubation at 37° C. for 40 minutes, plates were washed for 4 times using wash buffer. […] Plates were washed again using wash buffer. Finally, TMB was added and the reaction was stopped using 1M H_2SO_4, and the absorbance was read at 450 nm. Data were analyzed using Graphpad Prism software and $IC50$ values were reported.

[5] = molecular target: T3, biotin-labeled human PD-1 Fc protein; experiment: capture ELISA: antibody captured by anti-IgG Fc, biotin PD-1-Fc 60 nM
[6] = molecular target: T3, biotin-labeled human PD-1 Fc protein; experiment: competition ELISA: blocks biotin PD-1-Fc binding to coated Nivolumab (competitor)
Protocol: The next day, plates were washed with wash buffer, and blocked with 5% non-fatty milk in PBST for 2 hours at 37° C. […] Plates were finally washed using wash buffer. TMB was added and the reaction was stopped using 1M H_2SO_4, and the absorbance was read at 450 nm. Data were analyzed using Graphpad Prism software and $IC50$ values were reported.

| Binder | Reporter Activation (EC50, nM) human PD-1 cell (NFAT-luc)/human PD-L1 cell [1] | Kd [2] | koff [2] | kon [2] | Kd [3] | koff [3] | kon [3] | IC50 [4] | EC50 [5] | IC50 [6] |
| --- | --- | --- | --- | --- | --- | --- | --- | --- | --- | --- |
| mouse anti-PD-1 monoclonal antibody D1F1 (antibody, mouse IgG1, kappa, V domains shown, Purified from hybridoma; Constant regions tied only generically to 'mouse antibodies') VH: EVMLVESGGGLVKPGGSLKLSCAASGFTFSSNTMSWVRQTPEKRLEWVAAISGGGVNTYYPDSVKGRFTISRDNARNTLYLQMSSLRSEDTALYYCARHGNYNYYGMDYWGQGTSVTVSS VL: not shown | 10.8 nM | 2.83 nM | 0.000577 s⁻¹ | 204000 M⁻¹ s⁻¹ | 112 nM | 0.00292 s⁻¹ | 26000 M⁻¹ s⁻¹ | 0.2 nM | 0.24 nM | 2.13 nM |
| mouse anti-PD-1 monoclonal antibody D2C2 (antibody, mouse IgG1, kappa, V domains shown, Purified from hybridoma; Constant regions tied only generically to 'mouse antibodies') VH: EVMLVESGGGLVKPGGSLKLSCAASGFTFSSNTMSWVRQTPEKRLEWVAAISGGGVDTYYPDSVKGRFTISRDNARNTLYLQMSSLRSEDTALYYCARHGNYNYYGMDYWGQGTSVTVSS VL: not shown | 14.7 nM | 1.77 nM | 0.000307 s⁻¹ | 173000 M⁻¹ s⁻¹ | 116 nM | 0.00238 s⁻¹ | 20600 M⁻¹ s⁻¹ | 0.21 nM | 0.2 nM | 1.89 nM |
| mouse anti-PD-1 monoclonal antibody C1E1 (antibody, mouse IgG1, kappa, Purified from hybridoma; also called clone C1E1) heavy: EVMLVESGGGLVKPGGSLKLSCAASGFTFSSYLMSWVRQTPEKRLEWVATISGGGGDTYFPDSVKGRFTISRDNVKNNLYLQMSSLRSEDTALYYCVRFGGAGYYWYFDVWGAGTTVTVSSAKTTPPSVYPLAPGSAAQTNSMVTLGCLVKGYFPEPVTVTWNSGSLSSGVHTFPAVLQSDLYTLSSSVTVPSSTWPSETVTCNVAHPASSTKVDKKIVPRDCGCKPCICTVPEVSSVFIFPPKPKDVLTITLTPKVTCVVVDISKDDPEVQFSWFVDDVEVHTAQTQPREEQFNSTFRSVSELPIMHQDWLNGKEFKCRVNSAAFPAPIEKTISKTKGRPKAPQVYTIPPPKEQMAKDKVSLTCMITDFFPEDITVEWQWNGQPAENYKNTQPIMDTDGSYFVYSKLNVQKSNWEAGNTFTCSVLHEGLHNHHTEKSLSHSPGK light: not shown | 9.11 nM | 0.342 nM | 5.88e-05 s⁻¹ | 172000 M⁻¹ s⁻¹ | 3.9 nM | – | 203000 M⁻¹ s⁻¹ | 0.26 nM | 0.16 nM | 1.1 nM |
| mouse anti-PD-1 monoclonal antibody D1F2 (antibody, mouse IgG1, kappa, V domains shown, Purified from hybridoma; Constant regions tied only generically to 'mouse antibodies') VH: EVMLVESGGGLVKPGGSLKLSCAASGFTFSSYTMSWVRQTPEKRLEWVATISGGGSNIYYPDSVEGRFTVSRDNARNTLYLHMSSLRSEDTALYYCVLNYAYAMDYWGQGTSVTVSS VL: DIQMTQTTSSLSASLGDRVTISCRASQDISNFLNWYQQKPDGTVKLLIYYTSRLQSGVPSRFSGTGSGTDYSLTISNLEQEDLATYFCQQGSSLPWTFGGGTKLEIKR | 7.35 nM | 1.05 nM | 0.000203 s⁻¹ | 194000 M⁻¹ s⁻¹ | 31.7 nM | 0.00632 s⁻¹ | 200000 M⁻¹ s⁻¹ | 0.21 nM | 0.19 nM | 1.4 nM |
| mouse anti-PD-1 monoclonal antibody D1A1 (antibody, mouse IgG1, kappa, V domains shown, Purified from hybridoma; Constant regions tied only generically to 'mouse antibodies') VH: EVMLVESGGGLVKPGGSLKLSCAASGFTFSNYAMSWVRQTPEKRLEWVATISGGGGNIYYPDSVKGRFTISRDNARNTLYLQMSSLRSEDTALYYCASPYANYVWYLDVWGAGTTVTVSS VL: DIQMTQTTSSLSASLGDRVTISCRASQDISNYLNWYQQKPDGTVKLLIYYTSRLHSGVPSRFSGSGSGTDFSLTISNLEEEDIATYFCQQSNALPWTFGGGTKLEIKR | 9.13 nM | 2.06 nM | 0.000386 s⁻¹ | 188000 M⁻¹ s⁻¹ | 11.3 nM | 0.00236 s⁻¹ | 210000 M⁻¹ s⁻¹ | 0.22 nM | 0.2 nM | 1.28 nM |
| mouse anti-PD-1 monoclonal antibody C1A1 (antibody, mouse IgG1, kappa, V domains shown, Purified from hybridoma; Constant regions tied only generically to 'mouse antibodies') VH: QVTLKESGPGILKPSQTLSLTCSFSGFSLSTSGMGVGWIRQPSGKGLEWLAHIWWDDDKFYNPSLKSQLTISKDTSRNQVFLKITSVDTADTATYYCARTGGFITTGYWYFDVWGAGTTVTVSS VL: DIQMTQTTSSLSASLGDRVTISCRASQDISNYLIWYQQKTDGTLKLLIYYTSRLHSGVPSRFSGSGSGTDYSLTISNLEQEDIATYFCQQHKTLPWTFGGGTKLEIKR | 12.1 nM | 1.13 nM | 0.000189 s⁻¹ | 168000 M⁻¹ s⁻¹ | 9.5 nM | 0.00331 s⁻¹ | 348000 M⁻¹ s⁻¹ | 0.27 nM | 0.18 nM | 1.4 nM |
| mouse anti-PD-1 monoclonal antibody C1C5 (antibody, mouse IgG1, kappa, V domains shown, Purified from hybridoma; Constant regions tied only generically to 'mouse antibodies') VH: QIQLVQSGPELKKPGETVKISCKASGYTFTNYGINWVKQAPGKGLKWMGWINTYSGEPTYSDDFKGRFAFSLETSASTAYLQINNLKNEDTSTYFCVRQGDFDYEDAMDYWGQGTSVTVSS VL: DVLMTQSPLSLPVSLGDQASISCRSSQSIVHSNGHIYLEWYLQKPGQSPKLLIYKVSKRFSGVPDRFSGSGSGTDFTLKISRVEAEDLGVYYCFQGSHGTFGGGTKLEIKR | 23.4 nM | 0.88 nM | 0.000203 s⁻¹ | 231000 M⁻¹ s⁻¹ | 14.6 nM | 0.0047 s⁻¹ | 322000 M⁻¹ s⁻¹ | 0.23 nM | 0.16 nM | 1.34 nM |
| mouse anti-PD-1 monoclonal antibody C1F5 (antibody, mouse IgG1, kappa, V domains shown, Purified from hybridoma; Constant regions tied only generically to 'mouse antibodies') VH: EVQLVESGGGLVKPGGSLKLSCAASGFAFSSYDMSWVRQTPEKRLEWVAYITGGGSSSFYPDTVKGRFTISRDNSKNTLYLQMTSLRSEDTAMYYCASPYLSYFDYWGQGTTLTVSS VL: DIVLTQSPATLSVTPGDSVSLSCRASQSISNNLHWYQQKSHESPRLLIKYGSQSMSGIPSRFSGSGSGTDFTLVINSVETEDFGMYFCQQSNSWPLTFGAGTKLELKR | 7.58 nM | 0.372 nM | 0.000131 s⁻¹ | 353000 M⁻¹ s⁻¹ | 18.1 nM | 0.00249 s⁻¹ | 138000 M⁻¹ s⁻¹ | 0.21 nM | 0.16 nM | 0.87 nM |
| mouse anti-PD-1 monoclonal antibody C1F4 (antibody, mouse IgG1, kappa, V domains shown, Purified from hybridoma; Constant regions tied only generically to 'mouse antibodies') VH: QVQLQQSGAELVRPGVSVKISCKGSGYKFTDYAMHWVRQSHAKSLEWIGIISTYSGDVSFNQNFKGKATMTVDKSSSTAYMELARLTSEDSAIYYCSRLGITAGFAYWGQGTLVTVSA VL: DIVMTQSQKFMSTSVGDRVTITCKASQNVRTAVAWYQQKPGQSPKALIYLASNRHTGVPDRFTGSGSGTDFTLTISNVQSKDLADYFCLQHWNYPYTFGGGTKLEIKR | 13.2 nM | 2.3 nM | 0.000359 s⁻¹ | 156000 M⁻¹ s⁻¹ | 17.3 nM | 0.00521 s⁻¹ | 301000 M⁻¹ s⁻¹ | 0.43 nM | 0.25 nM | 2.26 nM |
| mouse anti-PD-1 monoclonal antibody C1E2 (antibody, mouse IgG1, kappa, V domains shown, Purified from hybridoma; Constant regions tied only generically to 'mouse antibodies') VH: QVQLQQSGAELVRPGTSVKISCKASGYTFTNYWLGWVKQRPGHGLEWIGDIYPGGGYTNYNENFKGKATLTADTSSSTAYMQLSSLTSEDSAVFFCARGYGTNYWYFDVWGAGTTVTVSS VL: SIVMTQTPKFLLVSAGDRVTITCKASQSVSNDVAWYQQKPGQSPKLLIYYAFHRYTGVPDRFTGSGYGTDFTFTISTVQAEDLAVYFCQQDYSSPYTFGGGTKLEIKR | 11.1 nM | 2.88 nM | 0.000442 s⁻¹ | 153000 M⁻¹ s⁻¹ | 12.5 nM | 0.00298 s⁻¹ | 238000 M⁻¹ s⁻¹ | 0.25 nM | 0.2 nM | 1.49 nM |
